# Measured values as given in paper PMC4932455, “Characterization of group II chaperonins from an acidothermophilic archaeon Picrophilus torridus” (FEBS Open Bio, 2016).
# Positions count from the first letter of the chain named.
# Experiments:
# [1] = target: β type group II CPN of Picrophilus torridus (Picrophilus torridus); experiment: SEC-MALS; WTC-100S5 column, 25 °C, 50 mM Tris-HCl pH 7.5, 25 mM MgCl2, 0.2 mM ATP, 300 mM (NH4)SO4, 1 mM DTT, 1.0 mL/min; purified oligomers
# [2] = target: Green fluorescent protein, acid-denatured [GFP: P42212]; experiment: GFP releasing assay (recovery of GFP fluorescence, fit of two consecutive steps); acid-denatured GFP captured by 400 nM PtoCPNα at 60 °C for 5 min in HKM buffer with 1 mM DTT, then diluted 10-fold into the same buffer at 30 °C; k1 is the release of denatured GFP
# [3] = target: α type group II CPN of Picrophilus torridus (Picrophilus torridus); experiment: SEC-MALS; WTC-100S5 column, 25 °C, 50 mM Tris-HCl pH 7.5, 25 mM MgCl2, 0.2 mM ATP, 300 mM (NH4)SO4, 1 mM DTT, 1.0 mL/min; purified oligomers
# [4] = target: Green fluorescent protein, acid-denatured [GFP: P42212]; experiment: GFP releasing assay (recovery of GFP fluorescence, fit of two consecutive steps); acid-denatured GFP captured by 400 nM PtoCPNα at 60 °C for 5 min in HKM buffer with 1 mM DTT, then diluted 10-fold into the same buffer at 50 °C; k1 is the release of denatured GFP
# PtoCPNα [5] = target: T1, PtoCPNα (Picrophilus oshimae, UniProt Q6L132, D139G/S260C/C290S); experiment: fluorescence change of fluorescein on Cys260; assay type: binding; conditions: 1 mM ATP, 50 nM chaperonin, 50 mM Tris-HCl pH 7.5, 25 mM MgCl2, 100 mM KCl, 60 °C; protein labelled with fluorescein 5-maleimide
# T1 construct: gene PTO0735; full length, untagged, pET23b in E. coli BL21(DE3); reassembled homo-oligomer (hexadecamer, 914 kDa); D139G from cloning; forward primer encodes MITGQTPILILKEGTERQ; locus assigned by printed order (other locus PTO1195)
# T1 sequence (Q6L132 1-546 D139G/S260C/C290S): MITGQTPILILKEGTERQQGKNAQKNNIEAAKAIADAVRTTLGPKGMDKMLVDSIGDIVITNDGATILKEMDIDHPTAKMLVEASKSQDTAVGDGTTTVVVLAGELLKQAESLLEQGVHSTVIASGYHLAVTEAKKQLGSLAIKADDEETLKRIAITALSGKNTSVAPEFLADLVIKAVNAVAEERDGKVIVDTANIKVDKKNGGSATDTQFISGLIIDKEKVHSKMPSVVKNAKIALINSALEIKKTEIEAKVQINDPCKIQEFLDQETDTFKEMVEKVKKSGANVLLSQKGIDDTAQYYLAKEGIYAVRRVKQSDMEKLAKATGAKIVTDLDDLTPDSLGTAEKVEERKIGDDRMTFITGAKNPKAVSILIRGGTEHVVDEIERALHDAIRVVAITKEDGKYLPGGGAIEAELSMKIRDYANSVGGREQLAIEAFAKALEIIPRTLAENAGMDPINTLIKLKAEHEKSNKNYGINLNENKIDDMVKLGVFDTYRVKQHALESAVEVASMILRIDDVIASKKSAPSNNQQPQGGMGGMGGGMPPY
# PtoCPNα [6] = target: T2, PtoCPNα (Picrophilus oshimae, UniProt Q6L132, D139G); experiment: ATP-dependent refolding of acid-denatured GFP; assay type: biochemical; conditions: 1 mM ATP, 50 mM Tris-HCl pH 7.5, 25 mM MgCl2, 100 mM KCl, 50 °C (figure legend: 60 °C)
# T2 construct: gene PTO0735; full length, untagged, pET23b in E. coli BL21(DE3); reassembled homo-oligomer (hexadecamer, 914 kDa); D139G from cloning; forward primer encodes MITGQTPILILKEGTERQ; locus assigned by printed order (other locus PTO1195)
# T2 sequence (Q6L132 1-546 D139G): T1 sequence (Q6L132 1-546 D139G/S260C/C290S) with C260S, S290C
compound,measurement,setting,value
β type group II CPN of Picrophilus torridus (complex),stoichiometry N,[1],14
α type group II CPN of Picrophilus torridus (complex),koff,[2],0.478 s⁻¹
same,stoichiometry N,[3],16
same,koff,[4],0.118 s⁻¹
Nc1ncnc2c1ncn2[C@@H]1O[C@H](COP(=O)(O)OP(=O)(O)OP(=O)(O)O)[C@@H](O)[C@H]1O [ATP],% decrease in maximal fluorescence intensity,PtoCPNα [5],~ 15.5%
same,ATP-dependent refolding of acid-denatured GFP,PtoCPNα [6],enhances its refolding in an ATP‐dependent manner
